Here are results for 1 molecule from US12122830 (ABL BIO, dated 2024).

For test [1], the target named is T1, recombinant mouse ROR1 protein (Acrobiosystems, RO1-M5221) (mouse, UniProt Q9Z139 30-406).
T1 construct: extracellular domain; Bought; also called mouse ROR1 antigen
In words: ELISA, recombinant mouse ROR1 protein coated at 1 µg/ml, IgG titrated, HRP anti-Fab detection. How it is done: The anti-ROR1 antibody-antigen binding affinity was estimated by using an ELISA-based solution binding test. Specifically, a 96-well microtiter plate (Nunc-Immuno Plates, NUNC) was coated with the ROR1 protein at a concentration of 1 µg/ml in a PBS solution as described below at 4° C. for 16 hours, and non-specific binding sites were blocked with 3% BSA (bovine serum albumin) for 2 hours. For this, as the ROR1 protein, in case of human ROR1, ROR1-Fc of Example 1 or recombinant ROR1-His (Sino Biological, 13968-H08H) was used. The ROR1-His used for ELISA was a protein of sino biological company (13968-H08H) as described in the above sentence, and ROR1-His of Example 1 or recombinant mouse ROR1 protein was used (Acrobiosystems, RO1-M5221-100 µg).
Then, after adding the anti-ROR1 antibody prepared in Example 3 at the concentration described in FIG. 2 into the microtiter plate on a 96-well microtiter plate, the binding capacity was analyzed with ELISA as follows. Specifically, after constant temperature treatment for 2 hours, the plate was washed with PBS comprising 0.05% tween 20 5 times, and then a HRP-conjugated Fab multiclonal antibody reagent (Pierce, 31414) was diluted at 1:10,000 ratio, and was put into the washed microtiter plate, and it was incubated at 37° C. for 1 hour, and the ROR1 antibody bound to the plate was detected. After reaction, it was color-developed by using TMB (Tetramethylbenzidine, Sigma, T0440). The enzymatic reaction was stopped by 0.5 mol/L of sulfuric acid, and the absorbances at 450 nm and 650 nm were measured by using a micro plate reader device (molecular device) (450 nm-650 nm).
In general terms: In an ELISA, binding on a coated surface is turned into a signal by an enzyme label.

For test [2], the target named is T2, human ROR1 expressed on the cell surface (human, UniProt Q01973 30-937).
T2 construct: whole, on cells; On JeKo-1 and Mino cells and other cancer cell lines (endogenous) and on transfected CHO and MC38 cells; also called cell surface-expressed ROR1; CHO-human ROR1
T2 sequence (Q01973 30-937): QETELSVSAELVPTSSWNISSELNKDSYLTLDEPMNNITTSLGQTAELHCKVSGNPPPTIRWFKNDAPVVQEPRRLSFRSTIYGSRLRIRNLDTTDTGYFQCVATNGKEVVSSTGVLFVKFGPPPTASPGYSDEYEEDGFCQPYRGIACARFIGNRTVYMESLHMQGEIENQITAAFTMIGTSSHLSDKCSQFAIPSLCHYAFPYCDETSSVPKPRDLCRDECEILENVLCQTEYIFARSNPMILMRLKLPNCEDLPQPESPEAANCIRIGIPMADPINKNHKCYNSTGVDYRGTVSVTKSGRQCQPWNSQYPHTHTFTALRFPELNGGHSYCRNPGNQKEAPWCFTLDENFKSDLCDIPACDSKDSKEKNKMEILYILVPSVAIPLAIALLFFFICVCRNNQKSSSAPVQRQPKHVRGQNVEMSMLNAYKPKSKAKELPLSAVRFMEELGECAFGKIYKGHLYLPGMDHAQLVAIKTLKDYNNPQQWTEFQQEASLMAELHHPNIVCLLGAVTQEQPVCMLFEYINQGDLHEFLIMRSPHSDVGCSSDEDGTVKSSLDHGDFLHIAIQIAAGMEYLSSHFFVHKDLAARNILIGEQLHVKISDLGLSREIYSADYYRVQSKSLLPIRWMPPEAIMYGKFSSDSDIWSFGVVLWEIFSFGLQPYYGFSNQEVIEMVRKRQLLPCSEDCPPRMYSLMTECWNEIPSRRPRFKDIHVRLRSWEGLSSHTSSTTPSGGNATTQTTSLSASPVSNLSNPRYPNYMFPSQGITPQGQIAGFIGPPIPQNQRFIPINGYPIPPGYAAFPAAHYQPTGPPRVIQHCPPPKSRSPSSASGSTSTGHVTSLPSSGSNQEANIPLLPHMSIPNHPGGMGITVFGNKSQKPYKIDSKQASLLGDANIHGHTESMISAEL
In words: flow cytometry on JeKo-1 cells (MCL), C2E3 IgG at 10 µg/mL, MFI of anti-ROR1 / MFI of 2nd Ab. How it is done: (§1) For the cell lines, the binding to ROR1 was analyzed with FACS (FACSCalibur, BD Biosciences) by using the anti-ROR1 antibody of the present invention.
(§2) Specifically, after disassociating each cell line and washing in PBS, the number of cells was counted and set as 2 ×10^5 cells/200 µl PBS, and then the clone C2E3 among ROR1 monoclonal antibodies prepared in Example 3 was treated in 10 µg/mL, and it was reacted at 4° C. for 1 hour. After reaction, cells were washed in PBS, and then the FITC-labeled constant region (Fc)-specific antibody (Goat anti-human IgG FITC conjugate, Fc specific, Sigma, F9512, concentration: 2.0 mg/ml) was suspended in 2 µl/1 ×10^5 cells/200 µl PBS, and it was reacted at 4° C. for 1 hour. After reaction, cells were washed in PBS, it was analyzed using a FACSCalibur device. The negative control group was treated only with the FITC-labeled constant region (Fc)-specific antibody. To compare the expression degrees of ROR1 among the cancer cell lines, the value of the result for the peak shift in the experimental group treated with the ROR1 monoclonal antibody (C2E3) of the present invention was divided by the result for the peak shift in the control group (Mean Fluorescence Intensity Ratio MFI Ratio: MFI of anti-ROR1/MFI of 2nd Ab).
A general note: Flow cytometry measures light scatter and fluorescence of single cells or particles in a stream.

The target in test [3] is T2, human ROR1 expressed on the cell surface. In words: flow cytometry on BT20 cells (breast cancer), C2E3 IgG at 10 µg/mL, MFI of anti-ROR1 / MFI of 2nd Ab. How it is done:
as §1, §2

The target is the same in test [4]. In words: flow cytometry on DLD-1 cells (colon cancer), C2E3 IgG at 10 µg/mL, MFI of anti-ROR1 / MFI of 2nd Ab. How it is done:
as §1, §2

Test [5] has the same target. In words: flow cytometry on HCT116 cells (colon cancer), C2E3 IgG at 10 µg/mL, MFI of anti-ROR1 / MFI of 2nd Ab. As for the experimental part: as §1, §2
Test [6] has the same target. In words: flow cytometry on HCC1187 cells (breast cancer), C2E3 IgG at 10 µg/mL, MFI of anti-ROR1 / MFI of 2nd Ab. As for the experimental part: as §1, §2
The target is the same in test [7]. In words: flow cytometry on HCC1937 cells (breast cancer), C2E3 IgG at 10 µg/mL, MFI of anti-ROR1 / MFI of 2nd Ab. As for the experimental part:
as §1, §2

Test [8] shares this target. In words: flow cytometry on NCI-H1975 cells (lung cancer), C2E3 IgG at 10 µg/mL, MFI of anti-ROR1 / MFI of 2nd Ab. How it is done: as §1, §2
For test [9] the target is unchanged. In words: flow cytometry on SNU-16 cells (gastric cancer), C2E3 IgG at 10 µg/mL, MFI of anti-ROR1 / MFI of 2nd Ab. As for the experimental part:
as §1, §2

Test [10] shares this target. In words: flow cytometry on Jurkat cells (T cell leukemia), C2E3 IgG at 10 µg/mL, MFI of anti-ROR1 / MFI of 2nd Ab. How it is done: as §1, §2
Test [11] has the same target. In words: flow cytometry on MDA-MB-468 cells (breast cancer), C2E3 IgG at 10 µg/mL, MFI of anti-ROR1 / MFI of 2nd Ab. How it is done:
as §1, §2

T1 sequence (Q9Z139 30-406): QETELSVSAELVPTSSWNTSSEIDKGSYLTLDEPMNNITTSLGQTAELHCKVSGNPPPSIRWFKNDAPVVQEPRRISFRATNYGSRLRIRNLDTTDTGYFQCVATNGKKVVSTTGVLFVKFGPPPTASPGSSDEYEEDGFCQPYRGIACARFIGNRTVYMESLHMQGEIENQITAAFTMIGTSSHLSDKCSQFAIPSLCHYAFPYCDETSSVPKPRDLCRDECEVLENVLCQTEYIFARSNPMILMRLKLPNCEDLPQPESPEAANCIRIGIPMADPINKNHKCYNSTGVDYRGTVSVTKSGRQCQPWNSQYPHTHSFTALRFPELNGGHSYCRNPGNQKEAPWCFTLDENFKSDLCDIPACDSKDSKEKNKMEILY

B1: C2E3 anti-ROR1 IgG antibody (antibody, V domains shown)
VH: EVQLLESGGGLVQPGGSLRLSCAASGFTFSNYAMSWVRQAPGKGLEWVSSISHNSGSTYYADSVKGRFTISRDNSKNTLYLQMNSLRAEDTAVYYCAKFISARKSLGRSYSNGMDVWGQGTLVTVSS
VL: QSVLTQPPSASGTPGQRVTISCTGSSSNIGSNDVTWYQQLPGTAPKLLIYADSKRPSGVPDRFSGSKSGTSASLAISGLRSEDEADYYCGTWDYSLSGYVFGGGTKLTVLG
For the molecule B1, in test [1], the binding result is “binds”. Moreover, the “Mean Fold Ratio” value came to 4 in test [2]; 3 in test [3]; 17.6 in [4]; 18 in [5]; 9.3 in test [6]; 2.7 in [7]. Also, the “Mean Fold Ratio” value in test [8] came out at 4.2; in test [9], 2.4; in test [10], 1.7; in test [11] it was 6.4.
